For test [1], the system named is renal ischemia reperfusion injury. Description: Test Example 9: acute renal failure due to renal ischemia reperfusion injury, check test 1. Format: in vivo, male Wistar rat. The settings on record: autopsy after the end of the test; vs control group. As for the experimental part: Right kidney was removed from male Wistar rat (n=4) under general anesthesia, and then left kidney of the rat was subjected to ischemia reperfusion with vascular clip to prepare a model. For SSV mAb-administered group, SSV mAb was then administered in an amount of 10 mg/kg 30 minutes before preparing the model and immediately after the reperfusion For control group, IgG (SIGMA) was administered in place of SSV mAb in the same manner. Then, urea nitrogen (BUN) and creatinine (Cr) in serum at 24 hours after preparing the model were measured and the nephropathy level was evaluated. Further, the rats were subjected to autopsy after the end of the test, and histological evaluation was performed.

The test system is the same in test [2]. As to the kind of experiment: Test Example 10: acute renal failure due to renal ischemia reperfusion injury, check test 2. Format: in vivo, male Wistar rats. The conditions noted are these: autopsy after the end of the test; vs control group. As for the experimental part:
Right kidney was removed from male Wistar rat (n=4) under general anesthesia, and then left kidney of the rat was subjected to ischemia reperfusion with vascular clip to prepare a model. For SSV mAb-administered group, SSV mAb was then administered in an amount of 10 mg/kg 30 minutes before preparing the model and immediately after the reperfusion Test was carried out in the same manner as Test Example 10 except that male Wistar rats (n=4-6) were used and except that, for SSV mAb-administered group, SSV mAb was administered in an amount of 10 mg/kg 30 minutes before preparing the model and 6 hours after the reperfusion. For control, IgG (SIGMA) was administered in place of SSV mAb in the same manner. Then, the concentrations of urea nitrogen (BUN) and creatinine (Cr) in serum at 24 hours after preparing the model were measured and the nephropathy level was evaluated. Further, the rats were subjected to autopsy after the end of the test, and histological evaluation was performed.

The test system of test [3] is lipopolysaccharide (LPS)-induced lethal sepsis. As to the kind of experiment: Test Example 8-2: histone concentration in serum and inflammatory tissue (lung). Format: in vivo, BALB/c mice. The method, then: (§1) BALB/c mice (bodyweight of 20 g to 30 g when starting the experiments, n=10) were raised in a plastic cage under SPF and thermo-hydrostat (22±1° C., 55±5%) conditions under 12-hour light-dark cycle. Foods and water were supplied ad libitum. Then, by intraperitoneally administering LPS to the mice at a dose of 40 mg/kg, lipopolysaccharide (LPS)-induced lethal sepsis as an inflammatory disease was induced in the same manner as Test Example 7. SSV mAb dissolved in physiological saline was intraperitoneally administered totally 3 times, i.e., at 30 minutes before, 6 hours after and 12 hours after the intraperitoneal administration of LPS, in an amount of 100 μg/dose in terms of the amount of SSV mAb. The survival of the animals thereafter was tested. To the control group, IgG (SIGMA) dissolved in physiological saline was administered in place of SSV mAb in the same manner.
In Test Example 8, heart-derived blood or lung tissue was obtained from control group and SSV mAb-administered group under general anesthesia according to the method conducted by Hasegawa et al. (Surg Res. 2012 May 1; 174(1):136-41.). The concentration of histone H1, histone H3 and H4 of the obtained samples were measured by using a commercially available measurement kit using ELISA.

Test [4] has as its system histone H1. Description: ELISA affinity for histone H1. It counts as binding. The conditions noted are these: absorbance at 405 nm; 5 μg/mL antibody; compared among histones. The method, then: (§2) The Affinities between histone H1 or core histone and SSVmAb were determined by ELISA.
(§3) A 96 well microplate was coated with histone H1, H2A, H2B, H3 or H4. Each histone used was dissolved in 100 mM sodium carbonate buffer (pH 9.3). The plate was washed with PBS-tween 20 (0.05%), and blocked with 3% skim milk and 1% BSA for 1 hour. To each well, 5 μg/mL SSVmAb was added, and incubated for 1 hour. Bound SSVmAb was detected using peroxidase (HRP) conjugated anti mouse IgG1 Ab (SIGMA), and incubated for 1 hour. Bound SSVmAb was detected using the ABTS [2,2′-azino-bis(3-ethylbenzothiazoline-sulfonic acid)] substrate solution, and absorbance at 405 nm was measured using Multiskan Ascent (Thermo Fisher Scientific Inc., Waltham, Mass.).
(§4) After the end of the tests, binding assays of SSV mAb with histone H1, histone H3 and histone H4 were carried out by ELISA in the same manner as Test Example 2.

Test [5] has as its target histone H4 (Homo sapiens, UniProt P62805). Description: ELISA affinity for histone H4. Format: binding. The conditions noted are these: absorbance at 405 nm, 5 μg/mL antibody, compared with histone H1. The method, then:
as §2, §3, §4
For orientation: ELISA stands for enzyme-linked immunosorbent assay.

Test [6] relates to lipopolysaccharide (LPS)-induced lethal sepsis. Description: Test Example 8-1: survival in LPS-induced lethal sepsis. Format: in vivo, BALB/c mice. As for the experimental part:
as §1

The test system is the same in test [7]. As to the kind of experiment: Test Example 7: survival in LPS-induced lethal sepsis. Format: in vivo, BALB/c mice. The method, then: as §1, with “n=6)” for “n=10)”, “Lipopolysaccharide (LPS)-induced lethal sepsis which is generally employed as an experimental sepsis model was induced” for “Then,”, “LPS” for “LPS to the mice”, “mg/kg.” for “mg/kg, lipopolysaccharide (LPS)-induced lethal sepsis as an inflammatory disease was induced in the same manner as Test Example 7.”

The subject of test [8] is histone H2B. As to the kind of experiment: ELISA affinity for histone H2B. It counts as binding. The conditions noted are these: absorbance at 405 nm; 5 μg/mL antibody; compared with histone H1. As for the experimental part:
as §2, §3

Test [9] deals with lipopolysaccharide (LPS)-induced lethal sepsis. Description: Test Example 8-4: evaluation of congestion, edema, inflammation and bleeding. The settings on record: vs control group. Format: in vivo, BALB/c mice. As for the experimental part:
as §1
After the end of Test Example 8, scores of congestion, edema, inflammation and bleeding were evaluated according to the method of Murakami et al. (Shock, 18 (2002), p. 236). In particular, magnified images of 24 visual fields under a microscope were subjected to observation. The degrees of deterioration of congestion, edema and inflammation in the SSV mAb-administered group and the control group were evaluated on a 5-point scale ranging from 0 to 4 (4 is the highest deterioration).

Where [10] appears, read: 70 hours after administration of LPS, p<0.05.

B1: SSV mAb: monoclonal antibody (IgG1) produced by Mouse-Mouse hybridoma SSV-C 93-3 (NITE BP-972), raised against peptide … (SEQ ID NO:1)-KLH conjugate (antibody, V domains shown)
VH: EIQLQQSGAELVKPGASVKISCKASGYSFTGYNMNWVKQSHGKSLEWIGNINPYYGSTSYNQKFKGKATLTVDKSSSTAYMQLNSLTSEDSAVYYCARSPYYSNYWRYFDYWGQGTTLTVSS
VL: QIVLSQSPAILSASPGEKVTMTCRASSSVSYMHWYQQKPGSSPKPWIYATSNLASGVPARFSGSGSGTSYSLTISRVEAEDAATYYCQQWSSNPWTFGGGTKLEIK
Consider B1, for which the “histological evaluation of kidney” value in test [1] and in test [2] was “better than that of the control group” each time. Further, the “concentration of histone H3 in blood sample” value in test [3] (FIG. 10A, vs control group) is “lower than the control group”; in test [3] (stated under the histone H4 results, FIG. 11A, vs control group), “tend to be lower than the control group”. The “concentration of histone H3 in inflammatory tissue (lung)” value was “lower than the control group” in [3] (FIG. 10B, vs control group) and “tend to be lower than the control group” in test [3] (stated under the histone H4 results, FIG. 11B, vs control group). The “concentration of histone H1 in blood sample” value in test [3] (serum, during the test) is reported as “almost kept constant without increase”. Besides, the “concentration of histone H1 in inflammatory tissue (lung)” value in test [3] (vs control group) is “more significantly decreased than that from the control group”. For the same molecule, the “affinity for histone H1 (ELISA)” value in [4] is reported as “binding capacity”. For the same molecule, the “affinity for histone H4 (ELISA)” value in test [5] was “binding capacity”; in test [5] (listed as SSVmAb), “higher than the affinity for histone H1”. In addition, the survival rate in test [6] (24 hours after administration of LPS 40 mg/kg i.p., 100 μg/dose i.p. 3 times) was 70%; in test [7] (70 hours after administration of LPS 40 mg/kg i.p., 100 μg/dose i.p. 3 times) it was 70%. In addition, the “survival rate relative to that of the control group” value in test [6] (setting [10]) and in [7] (setting [10]) was “about 3.5 times” throughout. In addition, the cumulative survival rate in test [7] (70 hours after administration of LPS) was 0.7. The “affinity for histone H2B (ELISA)” value in test [8] is “higher than the affinity for histone H1”. Also, the score of congestion entry in test [9] (5-point scale 0 to 4) is given as “significantly lower”. Further, the score of edema entry in [9] (5-point scale 0 to 4) is reported as “significantly lower”. Moreover, the score of inflammation result in [9] (5-point scale 0 to 4) was “significantly lower”. Besides, the score of bleeding result in test [9] is “significantly lower”.

(Values after patent US20170096478A1, “THERAPEUTIC AGENT FOR INFLAMMATORY DISEASE” (Josai University Corporation, priority 2012, published 2017).)
